The numbers were not newly measured in PMC9477731, which cites them from elsewhere.

The series deals with CD28 (Homo sapiens) (UniProt P10747).

Regarding CD80 (from UniProt P33681), the Kd is 4 µM.
